Data from patent publication EP3717020B1.

Target: endogenous RAS proteins in HeLa cells
Test: cell-based or functional assay

Row | Substance | EC50 of loss of RAS proteins in HeLa cells (anti-RAS immunoblot) [pM] | potency of RAS loss in HeLa cells against RRSP-dta-dtB [fold] | EC50 of loss of total RAS proteins in HeLa cells (24 h, anti-RAS immunoblot) [pM]
1 | RRSP-Δdta-dtB (enzyme) | 1 | 300 | 
2 | RRSP-APD-Δdta-dtB (enzyme) | 1 | 300 | 
3 | RRSP-dta-dtB (enzyme) |  |  | 250
